Assays:
[1] = pH optimum in Universal Buffer; assay type: biochemical; details: pH 5-11, p-nitrophenyl butyrate
Procedure: (§1) Esterase activity was determined by monitoring the formation of pNP at 410 nm from various pNP-esters using a Beckman UV spectrophotometer (model DU 640) (21). Substrates were dissolved in isopropanol and were added to 50 mM sodium phosphate buffer pH 8.0 to give 10% (v/v) total isopropanol concentration in a 1 mL reaction volume. pNP-butyrate was used at a final concentration of 1.2 mM. For pNP-caprylate, myristate and palmitate, the final concentration ranged from 0.1 to 0.5 mM. The reaction (1 mL) was started by adding an appropriate amount of enzyme. One enzyme unit (U) is defined as the amount of enzyme that produced 1 μmol of product (pNP) per min; specific activity is expressed as U/mg protein. A molar extinction coefficient of 15 mM^−1 cm^−1 for pNP is used for calculating enzyme activity.
Universal Buffer solutions were prepared according to Britton and Robinson (Surinenaite et al., 2002), having the selected pH value from 5-11. Activity of KrCUT and KrCUT189 were measured at the indicated pH, using p-nitrophenyl butyrate as substrate as described in Example 1, section 1.6). Curves were obtained by plotting values of activity against pH.

[2] = Substrate range on p-NP esters, KrCUT versus KrCUT189; assay type: biochemical
Procedure: as §1

[3] = Degradation of poly(1,3-propylene adipate); details: 2.5 μM, after 24 hours
[4] = Adsorption assay on PHB granules (Langmuir isotherm); assay type: binding
Procedure: Purified KrCUT of concentrations ranging from 0.16 to 3.2 mg/mL were mixed with 25 mg PHB in 50 mM sodium phosphate (pH 8.0) in a total volume of 1 mL and mixed by gently shaking for 3 h. The PHB polymer was removed by centrifugation and the concentration of protein in the supernatant was determined by the BCA method. The concentration of bound protein at a particular concentration of cutinase was calculated as the difference between a control without added PHB and free cutinase after incubation with PHB.
Adsorption assays were carried out following procedures of Kasuya et al. (1999). Purified KrCUT and KrCUT189 at concentrations ranging from 0.16 to 3.2 mg/mL were added to a suspension of 25 mg PHB in 50 mM sodium phosphate (pH 8.0) in a total volume 1 mL. The mixture was incubated at room temperature with gentle shaking for at least 3 h. The PHB polymer was removed by centrifugation and the concentration of protein in the supernatant was determined by the BCA method. The concentration of bound protein at a particular concentration of cutinase was calculated as the difference between a control without added PHB and free cutinase after incubation with PHB. An isotherm of [Bound](mg/mg PHB) vs [Free] (mM) was generated and binding parameters were determined by non-linear regression using the Langmuir equation:
[formula] where [E]=Ead+[E]e, is the concentration of the protein added; Emax is the maximum amount of protein adsorbed on the polyester granules, and K is the adsorption equilibrium constant of the protein.

[5] = Procedure: Molar masses of the samples were determined with universal calibration with the refractive index detector and the viscosity detector. The universal calibration curve was based on polystyrene standards [Polymer Laboratories (Amherst, Mass.) and Aldrich (Oakville, ON)] using the molar masses determined by the manufacturer and the intrinsic viscosities measured by the apparatus. The software OmniSEC™ software from Viscotek was used for data collection and calibration. Separation in THF was performed by injecting 100 μL of 1.5-2 mg/mL solutions of standards or samples into thermostatically controlled SuperRes™ columns [35° C.; PAS-102, PAS102.5, PAS-103L, each 300 mm×8 mm; PolyAnalytik (London, ON)]. The flow rate was 1 mL/min.
Alternatively, a thin film was prepared from 1 g of commercial available PCL pellets and used for degradation. The polymer was dissolved in dichloromethane in a 1 L beaker. The solvent was allowed to evaporate overnight and the resulting film dried to constant weight under reduced pressure. Prior to enzymatic treatment the film was cut into pieces (20 mg) of approximately 1.5 cm×1.5 cm and thickness of approximately 0.1 mm. The reaction mixture was monitored by HPLC and SEC as described above.
To quantify this further, pellets of polycaprolactone (PCL) as well as films of PCL were incubated with KrCUT at various enzyme concentrations (1.25 μM, 2.5 μM, and 5 μM representing 4.7, 9.5 and 19 enzyme Units) at 37° C. The degradation of the polymer was followed over time by analyzing aliquots of the reaction mixture by HPLC for the detection of the released monomer (6-hydroxyhexanoic acid) and characterization of the remaining polymer by SEC after lypholization of the sample.

B1: KrCUT189: truncated KrCUT lacking the T/P-rich linker and polymer-binding domain; cutinase catalytic domain, SEQ ID NO: 2 (protein)
chain: ATCSDVDVVFARGTGETPGLGVVGGPFVRSLTGELSDRTVTSHAVDYAASSSQASAGPGATAMSAHVREVAAACPSTRFVLGGYSQGATVTDIALGIRTGTTTGTPVPAELAGRVAAVVVFGNPLGLSGRTIATASSTYGPKSKDYCNSSDSVCGSAPKTGTGGHLSYASNGSTTDGARFAAGLVRAAG
modifications: Kineococcus radiotolerans; (1)..(189) KrCUT catalytic domain (KrCUT189)
pH optimum [1]: 8
activity towards pNB-acetate [2]: little activity
activity towards pNP-myristate compared to KrCUT [2]: higher
activity with various substrates compared to the full length protein [2]: lower activity
substrate giving the highest activity ([2]; p-NP esters): pNP-myristate
adipic acid found in the reaction mixture [3]: 17%
binding to PHB [4]: no binding
degradation of PCL pellets and PCL films compared with KrCUT [5]: Nearly identical results

From patent US10227575B2, “Multi-domain enzymes having cutinase activity, compositions comprising same and uses thereof” (OZYMES, priority 2015, dated 2019)
